Assay results published in the RNAGym collection of RNA variant scans (doi:10.1073/pnas.2313332121).

B1: TPR t1 (parent)
chain: GACCAAUCUGCCCUCAGAGCUCGAGAACAUCUUCGGAUGCAGAGGAGGCAGGCUUCGGUGGCGCGAUAGCGCCAACGUCCUCAACCUCCAAUGCAUCCCACCACAUGAUGAUGCCUGAAGAGCCUUGGUUUUUUG

Variants of: B1
Assay: polymerase ribozyme fitness, log enrichment relative to wild type (log ratio); higher = more active; in vitro selection for triplet polymerase activity
How it was run: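 Mutant libraries were PCR-built and transcribed for each subunit of a heterodimeric triplet polymerase ribozyme and selected for one round in triplicate at −7 °C, frozen, before gel excision of extended constructs and streptavidin-bead capture. Input and output libraries were Illumina-sequenced, keeping genotypes with ≥10 input reads and ≥1 read per output. Fitness is a logarithmic ratio of genotype to wild-type enrichment, in base 2, using inverse-variance-weighted replicate averages.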

Variant	polymerase ribozyme fitness (log ratio)
C11G U112C	1.9
C11U C22A C73A A83U	-5.9
C11G U33C G63A C99U A111C	-7.29
C11G U21A C53G C114A	0.189
C11G A29U G57A G60A C98U	-4.69
C11G A37U C72G A111C U129A U132C	-0.79
C11U C12U A29U G110U G122C C123A	-0.893
C11G A18U C40U C82U C99A U109G	-5.71
C11G C80U C101A	-0.977
C11G A16C A29G G45U	-4.19
C11G A27U G47C G69U A83U	-2.78
C11U A37U C49A C123U	0.929
C11G A111G	1.17
C11G A111U	-2.19
C11G C28G C86A C123U	-1.94
C11G C104A U130A	-2.13
C11G G19C G60A C123A U129C	-2.66
C11G A26U	-1.77
C11U A66G U87G G113U	-5.47
C11G A37C G61A	-0.00618
C11G G63U C85U U87C G110A	-2.67

Variant	polymerase ribozyme fitness (log ratio)
C11G C15A A37U C99U A111C U112C	-4.47
C11G A83U U126G	-0.958
C11U A37C G45U G58A U96A C101A	-2.32
C11G G93C C97G U106A G120C	-3.9
C11G U14G C15U A46C C73G C82A	-4.14
C11G A18U	-1.34
C11G U78C C102A A118U	-1.3
C11U A108G A118U	-3.04
C11U C22G A83C	-4.06
C11G C12A U38G G71A U106C G113A	-3.24
C11G G17A G71U U81A C85U G117C	-6.69
C11G G69A	-2.73
C11G G52C G117A	-1.05
C11U A18G A50U U96A C98U G110A A121G U134G	-5.84
C11G G19A A43U	-1.81
C11G U21A	-0.298
C11G U32A A46U C85A U126G	-5.61
C11U C13U C20G G107A G117U G120U	-3.09
C11G G39A G120C G127C	0.971
C11U C20A A37U G61A A83C C97A C98U U112C	-7.47
C11G C34A G122A C123A	-1.19

Variant	polymerase ribozyme fitness (log ratio)
C11G A108C	-4.07
C11G C40U	-0.213
C11A U96A	-2.53
C11G C53G C70U U96G A105C U112G	-7.25
C11G C85G G117A	-1.6
C11U C15A A29C C34A G71U C79U C104A G117U	-6.92
C11G G19C	-2.06
C11U A41U G52U U125A	-3.07
C11G C22G C53G C82U	-3.79
C11U A43U G61U G63C C72G C88A C89U A111U	-6.46
C11U C15G U59C U112A	-4.15
C11U C13G U30G U55A C70U A108U	-3.69
C11G G122U	0.995
C11G G42U	-0.866
C11G C13U A37U A83C	-0.361
C11G C40U C53U A68G U87A A90U U112A G127C	-6.81
C11G C15U G25C G69C A111C A118G	-6.31
C11G U96A U129G	-2.87
C11U A16U U54G U59C	-3.88
C11G C12G C49U U55G A91G	-2.61
C11G G19U G36U A41U C53U C56A G93C C114A C124U U130A	-6.06

Variant	polymerase ribozyme fitness (log ratio)
C11G G93U	0.289
C11U A121C	1.76
C11G C12A G36C C72U C73U	-1.07
C11U C22G A26C C64U	-4.03
C11G A18U A41U G57A A74U C114U G128C	-4.05
C11U C15A C49A C73G C85A G120A	-4.65
C11G C13A A16U C79U	-2.88
C11U A27G C86U C115U	-7.32
C11G C53G C62A C89A G122U	-3.13
C11G C28A U112A	-1.33
C11G G61U	0.628
C11U A43U G110U U132A	-3.03
C11G G77A U92A U129C	-4.39
C11G C40A C53A	-0.596
C11U A75G	-0.146
C11G C76A C79U A90U A119C G120U	-0.651
C11U A26U U55C A75G A83C	-3.24
C11G A46G C79U C82U C98U A118U	-0.917
C11G U21A C72G G110A	-3.29
C11U A29C C72G U112A G135U	-2.74
